{
  "source": "patent US20240228618A1",
  "about": "(Janssen / Centocor, published 2024)",
  "binders": {"B1": {"name": "CD123×CD3 bispecific antibody (bispecific antibody, human IgG4 S228P, kappa, lambda, F234A L235A)", "heavy 1": "not shown", "light 1": "EIVLTQSPGTLSLSPGERATLSCRASQSVSSSYLAWYQQKPGQAPRLLIYGASSRATGIPDRFSGSGSGTDFTLTISRLEPEDFAVYYCQQDYGFPWTFGQGTKVEIKRTVAAPSVFIFPPSDEQLKSGTASVVCLLNNFYPREAKVQWKVDNALQSGNSQESVTEQDSKDSTYSLSSTLTLSKADYEKHKVYACEVTHQGLSSPVTKSFNRGEC", "heavy 2": "EVQLVESGGGLVQPGGSLKLSCAASGFTFNTYAMNWVRQASGKGLEWVGRIRSKYNAYATYYAASVKGRFTISRDDSKNTAYLQMNSLKTEDTAVYYCTRHGNFGNSYVSWFAYWGQGTLVTVSSASTKGPSVFPLAPCSRSTSESTAALGCLVKDYFPEPVTVSWNSGALTSGVHTFPAVLQSSGLYSLSSVVTVPSSSLGTKTYTCNVDHKPSNTKVDKRVESKYGPPCPPCPAPEAAGGPSVFLFPPKPKDTLMISRTPEVTCVVVDVSQEDPEVQFNWYVDGVEVHNAKTKPREEQFNSTYRVVSVLTVLHQDWLNGKEYKCKVSNKGLPSSIEKTISKAKGQPREPQVYTLPPSQEEMTKNQVSLTCLVKGFYPSDIAVEWESNGQPENNYKTTPPVLDSDGSFLLYSKLTVDKSRWQEGNVFSCSVMHEALHNHYTQKSLSLSLGK", "light 2": "QAVVTQEPSLTVSPGGTVTLTCRSSTGAVTTSNYANWVQQKPGQAPRGLIGGTNKRAPGTPARFSGSLLGGKAALTLSGAQPEDEAEYYCALWYSNLWVFGGGTKLTVLGQPKAAPSVTLFPPSSEELQANKATLVCLISDFYPGAVTVAWKADSSPVKAGVETTTPSKQSNNKYAASSYLSLTPEQWKSHRSYSCQVTHEGSTVEKTVAPTECS"}},
  "molecular_target": "human CD123 (human, UniProt P26951 19-378)",
  "sequence (P26951 19-378)": "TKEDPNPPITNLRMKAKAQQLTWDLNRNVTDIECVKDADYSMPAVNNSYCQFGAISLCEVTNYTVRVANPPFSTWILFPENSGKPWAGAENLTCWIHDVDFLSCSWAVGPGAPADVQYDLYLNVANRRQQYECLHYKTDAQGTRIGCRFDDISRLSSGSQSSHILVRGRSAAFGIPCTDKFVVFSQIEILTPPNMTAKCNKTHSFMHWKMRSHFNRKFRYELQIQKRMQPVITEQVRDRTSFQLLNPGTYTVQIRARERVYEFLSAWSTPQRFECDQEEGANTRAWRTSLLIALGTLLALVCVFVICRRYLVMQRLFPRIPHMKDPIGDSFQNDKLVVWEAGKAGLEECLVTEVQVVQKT",
  "test": "cell-based or functional assay",
  "data": [
    {"binder": "B1", "values": [
      {"measurement": "EC50 of T cell-mediated cytotoxicity, target HL-60, HS-5 stroma, no anti-CD44, 48 h", "result": 0.142, "unit": "nM"},
      {"measurement": "EC50 of T cell-mediated cytotoxicity, target HL-60, HS-5 stroma, with anti-CD44, 48 h", "result": 0.0762, "unit": "nM"},
      {"measurement": "EC50 of T cell-mediated cytotoxicity, target HL-60, no stroma, no anti-CD44, 48 h", "result": 0.0868, "unit": "nM"},
      {"measurement": "EC50 of T cell-mediated cytotoxicity, target HL-60, no stroma, with anti-CD44, 48 h", "result": 0.0808, "unit": "nM"},
      {"measurement": "EC50 of T cell-mediated cytotoxicity, target KG-1, HS-5 stroma, no anti-CD44, 48 h", "result": 0.0319, "unit": "nM"},
      {"measurement": "EC50 of T cell-mediated cytotoxicity, target KG-1, HS-5 stroma, with anti-CD44, 48 h", "result": 0.0265, "unit": "nM"},
      {"measurement": "EC50 of T cell-mediated cytotoxicity, target KG-1, no stroma, no anti-CD44, 48 h", "result": 0.0028, "unit": "nM"},
      {"measurement": "EC50 of T cell-mediated cytotoxicity, target KG-1, no stroma, with anti-CD44, 48 h", "result": 0.0009, "unit": "nM"},
      {"measurement": "EC50 of T cell-mediated cytotoxicity, target MOLM-13, HS-5 stroma, no anti-CD44, 48 h", "result": 0.0262, "unit": "nM"},
      {"measurement": "EC50 of T cell-mediated cytotoxicity, target MOLM-13, HS-5 stroma, with anti-CD44, 48 h", "result": 0.153, "unit": "nM"},
      {"measurement": "EC50 of T cell-mediated cytotoxicity, target MOLM-13, no stroma, no anti-CD44, 48 h", "result": 0.0362, "unit": "nM"},
      {"measurement": "EC50 of T cell-mediated cytotoxicity, target MOLM-13, no stroma, with anti-CD44, 48 h", "result": 0.0125, "unit": "nM"},
      {"measurement": "EC50 of T cell-mediated cytotoxicity, target MV4-11, HS-5 stroma, no anti-CD44, 48 h", "result": 0.0057, "unit": "nM"},
      {"measurement": "EC50 of T cell-mediated cytotoxicity, target MV4-11, HS-5 stroma, with anti-CD44, 48 h", "result": 0.0025, "unit": "nM"},
      {"measurement": "EC50 of T cell-mediated cytotoxicity, target MV4-11, no stroma, no anti-CD44, 48 h", "result": 0.0056, "unit": "nM"},
      {"measurement": "EC50 of T cell-mediated cytotoxicity, target MV4-11, no stroma, with anti-CD44, 48 h", "result": 0.0026, "unit": "nM"},
      {"measurement": "EC50 of T cell-mediated cytotoxicity, target SKNO-1, HS-5 stroma, no anti-CD44, 48 h", "result": 0.0757, "unit": "nM"},
      {"measurement": "EC50 of T cell-mediated cytotoxicity, target SKNO-1, HS-5 stroma, with anti-CD44, 48 h", "result": 0.108, "unit": "nM"},
      {"measurement": "EC50 of T cell-mediated cytotoxicity, target SKNO-1, no stroma, no anti-CD44, 48 h", "result": 0.0111, "unit": "nM"},
      {"measurement": "EC50 of T cell-mediated cytotoxicity, target SKNO-1, no stroma, with anti-CD44, 48 h", "result": 0.0077, "unit": "nM"}
    ]}
  ]
}
